Measured values reported in the DeepSol protein solubility set.

assay: soluble on expression in E. coli; label from the status in PepcDB or PDB records

Row | Sequence | soluble on expression in E. coli
1 | MSAISSFVLECAHAGRWVRGLMALQEQHLPAEPSMRVACVALAQAAAPHSWAAALCLLRPSDALRHPQEVCKTVDTIARHAQLPIDVFESSMEALLLSLQQLSQSKSHPASGSSRQLASIGPCEALGLATPSTPIQQQVFLSATQWCGWETAARLLACLPSPLPQACVERVQELRTLRHRILHDVGPFCHWGSRAALSSVIGSAGGPLPASAQGTSLAEQLERMEPSPARRYSARDRRELSWLRDHKRQRLLQRTREEEDMLTRQAAEDVAPSALSVCAALRAVTRLPSAASVTAPHVLCRHVLTLSQSRRLTPDIALLYGRAAGLCTPHSWEATVDTLNRAEVRDARLHRQLTTWVISRGSWRAALERLSQLHRDTSSAVPQRSGNNTGDLHRGGDAAASFDCVQRTAVPASYLHRVVPQVSRPWCRLVSSRHSTASLLRQIAGALAGGVRLDEVQLSEAGKEWAANGRWEAALALYYRFPLPEFQKYATRSLVTARPALPPVPSVSHPPSSCLQIGSDPLPGSPSKDSAMFYARTVLELLVPRDGVRYDSASPPRPAPPLGTYPACLVIDAAADWSEAVAVFRACVRRGTRCNPQLLSTLMRRQDLPPQELRQILKSYPAAVNDGVRRRAKEGFGVE | not soluble
2 | MKKPPLNICILRLSAIGDVCHTLAVIQAIQRQYPDIKISWIIGKTEAHLMQGIHNVELIPYDKKSGWQGIITLWKQLRNKRFDFLLNMQTALRASMLSLGIKATHKIGFNKDRAREMQSLFVDSQVEMTASPHVLDGQMMFAKAIGVTDLTPRWHLPVSSADLAYSNQFLNPHTQNVVIAPCSSKTEKDWDIASNAEIAKWLTDQNINVIIVGSPTDYECATANQIKQLAPKVINTTGKTTLKQLAALIKQVDLVIAPDTGVAHIATTQHTRVIGLYAIHNPRRTAPYSDQANVISVYDQAILDYYGTSWDKLAWATKAKSKKGEKLMQRITVEEVKQKIVETLNLKL | not soluble
3 | MKYVLDTSAIISRNINLLDGDLLFPSSVIGEIRKGKLKYMLDALFPMIRIVDPDQYYVRSVEDAAHKTGDLMNLSGTDIEVIAVAMQYGATIVTDDYSIQNVASALKIAFMNANIKSISKQISWVYRCTGCKKIFHEPVKVCDICGHNVKRHYDKKRSAVKKILEHHHHHH | not soluble
4 | MSTQLATSMEIIRKSLRKAAEDVLHINSKNAISNEVDSEEFKETLMKDAMKLMELETEGAQMQHIFEALHNDLKDGSDEVPNEKALEELYEKAKKTHKNVKGERQYFKDIIKSIRDESKNDENEMEVMQVQHSRKDPISKKDIVNPVISKNCGHVYDRDSIHEFAGKKRVIKCAMQGCSETINIGQLADYPDYWTNIKQQQ | not soluble
5 | GSSGSSGNWIDVRYDLEKIESLIQSIHIDTTLYTDSDFHPSCKVTAMNCFLLELQVILHEYSNMTLNETVRNVLYLANSTLSSNKNVAESGCKECEELEEKTFTEFLQSFIRIVQMFINTS | soluble
6 | SQPIATQELQLGDELANKAFAATNRGDFVAAEDYWTQIIEKFPINAGAWINRGNSRVSQNKLEAALTDYNKAIELAPNLTDPYLNRGTALEGLGKWEDAIADYNYVLALDPNDAMAYNNRGNAKTGLGKWEDAISDYQKATAIAPNFAFARANYALALYETGQTDKAIREMRNIVRKYPKFADMRAALTAAYWVGGQKGEAESNWVAAYGLDTRYKDMDWVTNIRRWPPSMVAALDKFLKLN | soluble
7 | MNELKNAQTASAHRILLPLLRCIASGAADVTEEGNEIVLRRKRPGQAVQRFPTETVRLAVSSGLLEWRQNSLSAAPPLASYLKRATAKDRDEVFQEQHRDIQTVVVEIDETKQPARRNLNTAPLTSLSRLKERDGSAFFPEDALAAGERLAADFHRGHLNPRVTATWEPRIASRGKGEAGGALDLTEAAMAARARFSRAADAMGPELSGVAIDICCFEKGLETVERERLWPARSAKLLLRAALLSLARHYAPPVPPARGKDRPKERHWGDADYRPSLR | not soluble
8 | QSRTPTIFFHGYGSSANAETHMTNAAKKAGVTKTVILAYVDQNGHVTLVGKIPKNAINPIVKVNFADNRNADYDTDAKYAKAVVSKLQKTYHFKKMNMVGHSMGNMAINFYMLANAEDKTLPQLQKQVDIAGHFDGIKNYDLPQNLTINAKTGQPNAMTAAYKRLLKLQERYPKDQVDVLNLYGDKGDGSDGIVTNDSSRTLKYLIGERAKSYQEHRFTGKLAGHSKLHENPQVDKFLINFLWGK | not soluble
9 | MSLIDRFGRPLEDLRITLTHACNFECFFCHMEGEEGDNYLLSKEDILLVAKVARKFGINSVKLTGGEPTLRRDLVEIVRGLKQLGYEDVSMTTNGFLLKDLAHKLKLAGLDRINISLHAVSRDTFKKITGVDAFDRVIEGIKSAIDVGLVPVKLNFVVNRRNREEAFKFIELSQNLGVNEIHLIELHPVGLGKLAFKEHDDLREIEEYIEKISIKKLIRKKHFRPRYVLPSGLIVEVVKPYANPIFCAGCNRIRLSVDGKLKTCLYREDNVIDVLDILKGEYSEDVKEELLGRAFMIAIAIREPNFKYKIEGHHHHHH | soluble
10 | MLQVLGRLINILFPLLRFILGIWWEKLRGKDPTVSRAKAIQLRELLTNLGPTYIKVGQALSTRPDLVPPVFLDELTTLQDQLPSFPNEVAYRFIEEELGAPAEEIYAELEHHHHHH | not soluble
11 | MGSDKIHHHHHHMQFLDDSLHPENQDKVVITVAPYGPEWMPQDFPEDIPVTMEEQVQKAVDCYNAGATVLHLHVRELDGKGSKRLSKFNELIAGVRAAVPDMIIQVGGSISFAPEDDGQAAKWLSDDTRHMLADLDPKPDQVTVAINTTQMNIMELLYPEYLEGTSLSHPAYVEAYREMTVPAGPGWVEEHLRRLSNAGIQPHFQLTGIHAMETLERMVRAGKYKGPLNLTWIGIGGGFDGPNPFNFVNFVHRAPDGCTLTAESLLKNVLPFNMMAMAMGLHPRCGIEDTIIDQHGNRMTSVQQIEQCVRVARELGREIASGKEAREIYRIGTWYDSAEETLEAHGMAPNRKAGQKNLPLRKAA | not soluble
12 | MNNAKTAVTSRSVISLNSPIFLRQFYFEILNRLQVSSIIPKSKSEYVDAHMIRVSIEPQPTAFAYVFEYSTISTEPDNWNFAGASSKPEATFSILDPCRDYQFRVIIVIRSSNPAAVFDIIRPRPIPVQLPPFILTQPQISIEMPRVNNFNASGDLKLYVKWSLPYGYIDGDIYSYESPALYPIQCSTPEGEIPTPRIEIVKGGGRLAVWLPPSVLEARCRMWVEVRMLPRCVRLEPFNIQKNIEIDCSKNPSLDVCSKGR | not soluble
13 | MGSDKIHHHHHHMRYRRFGRTELAMPVFSCGGMRYQQSWKDVDWPEISVESQANLEATLARSLELGINHIETARYYGSSERQLGKALAAYPRSEIILQTKVPPSEDPAEFLETFDRSMSLLQTDYVDLLSIHGVNNAELLDWALRKGGSLDVAERLQAEGRVRHIGFSTHAPLPVILEAIASDRLSYINLHWYYIFQTNQAALEAAQKHDMGVFIISPSDKGGHLYSPPQKLVDLCEPLHPMVFNDLFCLSQPQIHTLSIGAARPSDFDRHLETLPLLDQADQVLPPILERLEAAATAALGQDWLDTWMVGLPTPDTTPGEINIPTIVWLYNLVQAFDMVKYAKARYNLLGNGGHWFPGQRAGQFDPVALSAALDQSPHRDRILQILKEMDAWLGGESVVRLSQSS | not soluble
14 | MSLEIIPVIDLMNGLAVSGKSGNRKEYVPIKSVLCDSSDPHDVIKKYNENGAKKVYIADLNSIMGTGNNFEIVKSLDIFKIVDFGVTDKKDLENVKKCVNMTILGTETLNDISILKEGNIILSLDFKDGKLLNYDLDDILSKVDKKTPLIILDISSVGTQKGINVELIKDILKKTDNPIYIGGGIKSEDDLKISKELGISGVLIGTTIHNGKLDLKKIIQKYGEGHHHHHH | soluble
15 | SNAMKLMDVHVLFSGGKDSSLSAVILKKLGYNPHLITINFGVIPSYKLAEETAKILGFKHKVITLDRKIVEKAADMIIEHKYPGPAIQYVHKTVLEILADEYSILADGTRRDDRVPKLSYSEIQSLEMRKNIQYITPLMGFGYKTLRHLASEFFILEEIKSGTKLSSDYEAEIRHILKERGESPEKYFPEHKQTRVVGLKKEI | soluble
16 | MTHTVHLHLEETDNLALQRLCGSFDNNLDLLAKALDIHISRRFEHFTFNGAFAHAGKRALLKLLETAQTRDLNDGDIRLAAVEAQTEDAGHQEKNHDHAYYFRTKRGSIGGRTPRQNGYIRALLNHDIVFGLGPAGTGKTYLAVAAAVDAMEKHQVERIILVRPAVEAGEKLGFLPGDLTQKVDPYLRPLYDALYDLMGFDRVTKLIEKGLIEIAPLAYMRGRTLNGAYIILDEAQNTTPEQMKMFLTRIGFGAKAVITGDTSQIDLPKNIKSGLKDAREKLHNVEGLYFHTFTGEDVVRHPLVQKIVEAYESAEHD | not soluble
17 | MFYDGYAYHGTTFEQTYRCYPSSFIDKPQIESGDKIIMPPSALDRLASLQIDYPMLFELRNASTDSFSHCGVLEFIAEEGVIYIPYWMMQNLLLQEGDMVRVRNVTLPKGTYVKLQPHTTDFLDIANPKAILETALRNYSCLTVGDSIMVPYNNKKYFIDIVEAKPSNGISIIETDCEVDFAPPLDYKEPERPVAPAPAKGEAKAKEVDVAEAEPKFNPFTGSGRRLDGRPLSYEPQPGAANSNGQSHPVASSSSSGSEKATQQNRGKLVFGSNVERSTKETTKVGAGKDRKQEEEAEKEAKFQAFSGKKYSLRG | soluble
18 | MAHHHHHHMKQNGGRETPDGVRYPHIALDVLGQCHSSACVELGNTRVICAVHHPQQLVDEYRGSRGRVACTVRRSASAGSHAAGSAQPSVVTPEKDMSLALEGVAEEVVILEKIPQLLVEVVVEILAEDGGVWDAVATSMSAALVSGGFEMYDLFSACGSALLSDGAVVLDPDAAEESNAQASALVCLMLNSGDICYARHQGSCEPGTVLELVSSAMKGCLSRKSAITTQLINHPIL | not soluble
19 | KVQSTFAKYSRVRSMTGMTGAEAAKRLLNSQGIYDVQVRKVAGNLTDHYDPRNKTLNLSESVYDSPSVAAIGVAAHECGHAIQDNTEYAPLKIRGAIVPVVNIGTQLSWPM | not soluble
20 | AEAQNDPLLPGYSFNAHLVAGLTPIEANGYLDFFIDRPLGMKGYILNLTIRGQGVVKNQGREFVCRPGDILLFPPGEIHHYGRHPEAREWYHQWVYFRPRAYWHEWLNWPSIFANTGFFRPDEAHQPHFSDLFGQIINAGQGEGRYSELLAINLLEQLLLRRMEAINESLHPPMDNR | soluble
21 | MSQESSVLSESQEQLANNPKIEDTSPPSANSRDNSKPVLPWDYKNKAIEIKSFSGYKVNFTGWIRRDVREERQRGSEFTASDVKGSDDKATRKKEPADEDPEVKQLEKEGEDGLDS | soluble
22 | TISQRPYRDRVIHLLALKAYKKPELLARLQKDGVNQKDKNSLGAILQQVANLNSKDLSYTLKDYVFKELQRDWPGYSEIDRRSLESVLSRKLN | soluble
23 | MGHHHHHHGGHMSLTISLAKGQKVDLTKTNPGLSKVVVGLGWDTNKYDGGHDFDLDSSVFLLDAAGKCASPNDFIFYNQLEGGNGSVVHSGDNLTGAGEGDDENVKVNLSAVPANIDKISFVITIHDAEARSQNFGQVSNAFVRIVNEETNEELIRYDLAEDFSIETAIIAGELYRHNGEWKFSAIGSGYQGGLARIATDYGLQVGEGGS | soluble
24 | MGSDKIHHHHHHMTAELLRLLENVLRVGVVTEIDVDEWRVRVSAGGLHTDWLRWDALRAGSFSVWIPPSVGEQVLLGCIGGNPETAVIIGSIYSAANPAPGSSSSELVIKAPDGATVRYDAAAGALEASGMKTARIVASVGVTLETPVVECTEHLVAKTFSFTEGGTMKGDVNHTGGAFKSNGVQADEHSHGNVLNGPGWSDGTR | not soluble
